Assay results: PMC4445065, “SOXE transcription factors form selective dimers on non-compact DNA motifs through multifaceted interactions between dimerization and high-mobility group domains”

Key:
[1] = biological target: T1, SOX9-NHMG (UniProt Q04887 1-181); assay: EMSA; homodimer, cooperativity factor ~100 (about 10-fold diminished); EMSA: 10 mM Tris-HCl pH 8.0, 0.1 mg/ml BSA, 50 uM ZnCl2, 100 mM KCl, 10% glycerol, 0.1% Igepal CA630, 2 mM beta-mercaptoethanol, 50 nM DNA, 4 h at 4 C; CD: 50 mM phosphate pH 8.0, 4 h at 4 C; conditions: protein: recombinant; tags: His6 or His-MBP fusion, removed by TEV; chain copies: 2; label: Cy5 forward strand
T1 sequence (Q04887 1-181): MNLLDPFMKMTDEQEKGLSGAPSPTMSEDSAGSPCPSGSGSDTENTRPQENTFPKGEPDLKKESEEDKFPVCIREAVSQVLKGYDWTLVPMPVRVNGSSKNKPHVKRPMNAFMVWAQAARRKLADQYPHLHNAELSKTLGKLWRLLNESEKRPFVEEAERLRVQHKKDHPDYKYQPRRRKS

[2] = biological target: T1, SOX9-NHMG; assay: EMSA; highly cooperative homodimer; EMSA: 10 mM Tris-HCl pH 8.0, 0.1 mg/ml BSA, 50 uM ZnCl2, 100 mM KCl, 10% glycerol, 0.1% Igepal CA630, 2 mM beta-mercaptoethanol, 50 nM DNA, 4 h at 4 C; CD: 50 mM phosphate pH 8.0, 4 h at 4 C; conditions: protein: recombinant; tags: His6 or His-MBP fusion, removed by TEV; chain copies: 2; label: Cy5 forward strand
[3] = biological target: T1, SOX9-NHMG; assay: EMSA; highly cooperative homodimer; cooperativity factor denoted infinite; EMSA: 10 mM Tris-HCl pH 8.0, 0.1 mg/ml BSA, 50 uM ZnCl2, 100 mM KCl, 10% glycerol, 0.1% Igepal CA630, 2 mM beta-mercaptoethanol, 50 nM DNA, 4 h at 4 C; CD: 50 mM phosphate pH 8.0, 4 h at 4 C; conditions: protein: recombinant; tags: His6 or His-MBP fusion, removed by TEV; chain copies: 2; label: Cy5 forward strand
[4] = biological target: SOX9-DHMG;SOX8-NHMG (;, UniProt Q04887;Q04886 60-181;1-175, |); assay: EMSA; heterodimer band; EMSA: 10 mM Tris-HCl pH 8.0, 0.1 mg/ml BSA, 50 uM ZnCl2, 100 mM KCl, 10% glycerol, 0.1% Igepal CA630, 2 mM beta-mercaptoethanol, 50 nM DNA, 4 h at 4 C; CD: 50 mM phosphate pH 8.0, 4 h at 4 C; conditions: protein: recombinant;recombinant, tags: His6 or His-MBP fusion, removed by TEV;His6 or His-MBP fusion, copies: 1;1, label: Cy5 forward strand
SOX9-DHMG;SOX8-NHMG, sequence (Q04887 60-181, chain 1 of 2): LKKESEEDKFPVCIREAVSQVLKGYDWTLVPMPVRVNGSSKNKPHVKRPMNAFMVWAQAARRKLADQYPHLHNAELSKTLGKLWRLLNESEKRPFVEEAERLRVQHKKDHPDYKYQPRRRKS
SOX9-DHMG;SOX8-NHMG, sequence (Q04886 1-175, chain 2 of 2): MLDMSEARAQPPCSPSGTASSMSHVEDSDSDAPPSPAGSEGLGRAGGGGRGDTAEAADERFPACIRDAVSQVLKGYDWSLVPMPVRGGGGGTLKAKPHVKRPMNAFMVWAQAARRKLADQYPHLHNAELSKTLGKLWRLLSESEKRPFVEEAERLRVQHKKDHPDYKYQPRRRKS

[5] = biological target: SOX8-NHMG;SOX10-DHMG (;, UniProt Q04886;Q04888 1-175;61-180, |); assay: as above; conditions: protein: recombinant;recombinant, tags: His6 or His-MBP fusion, removed by TEV;His6 or His-MBP fusion, copies: 1;1, label: Cy5 forward strand
SOX8-NHMG;SOX10-DHMG, sequence (Q04886 1-175, chain 1 of 2): as the sequence (Q04886 1-175, chain 2 of 2) above
SOX8-NHMG;SOX10-DHMG, sequence (Q04888 61-180, chain 2 of 2): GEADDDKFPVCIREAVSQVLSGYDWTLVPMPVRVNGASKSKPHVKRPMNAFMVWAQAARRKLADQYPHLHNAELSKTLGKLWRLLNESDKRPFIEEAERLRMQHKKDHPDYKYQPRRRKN

[6] = biological target: SOX9-NHMG;SOX10-DHMG (;, UniProt Q04887;Q04888 1-181;61-180, |); assay: as above; conditions: protein: recombinant;recombinant, tags: His6 or His-MBP fusion, removed by TEV;His6 or His-MBP fusion, copies: 1;1, label: Cy5 forward strand
SOX9-NHMG;SOX10-DHMG, sequence (Q04887 1-181, chain 1 of 2): as the sequence (Q04887 1-181) above
SOX9-NHMG;SOX10-DHMG, sequence (Q04887 other isoform, or with tags, fused parts or gaps |, chain 2 of 2): as the sequence (Q04888 61-180, chain 2 of 2) above

[7] = biological target: SOX9-NHMG;SOX9-HMG (;, UniProt Q04887;Q04887 1-181;103-181, |); assay: EMSA; mixed dimer more prominent than SOX9-NHMG homodimer; EMSA: 10 mM Tris-HCl pH 8.0, 0.1 mg/ml BSA, 50 uM ZnCl2, 100 mM KCl, 10% glycerol, 0.1% Igepal CA630, 2 mM beta-mercaptoethanol, 50 nM DNA, 4 h at 4 C; CD: 50 mM phosphate pH 8.0, 4 h at 4 C; conditions: protein: recombinant;recombinant; tags: His6 or His-MBP fusion, removed by TEV;; copies: 1;1; label: Cy5 forward strand
SOX9-NHMG;SOX9-HMG, sequence (Q04887 1-181, chain 1 of 2): as the sequence (Q04887 1-181) above
SOX9-NHMG;SOX9-HMG, sequence (Q04887 103-181, chain 2 of 2): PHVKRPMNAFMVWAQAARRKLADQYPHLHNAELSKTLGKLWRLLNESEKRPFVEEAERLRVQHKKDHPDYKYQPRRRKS

[8] = biological target: SOX10-DHMG (UniProt Q04888 61-180); assay: EMSA; homodimer, as cooperative as SOX9-NHMG; EMSA: 10 mM Tris-HCl pH 8.0, 0.1 mg/ml BSA, 50 uM ZnCl2, 100 mM KCl, 10% glycerol, 0.1% Igepal CA630, 2 mM beta-mercaptoethanol, 50 nM DNA, 4 h at 4 C; CD: 50 mM phosphate pH 8.0, 4 h at 4 C; conditions: protein: recombinant; tags: His6 or His-MBP fusion, removed by TEV; chain copies: 2; label: Cy5 forward strand
SOX10-DHMG, sequence (Q04888 61-180): as the sequence (Q04888 61-180, chain 2 of 2) above

[9] = biological target: SOX8-NHMG (UniProt Q04886 1-175); assay: as above; conditions: protein: recombinant; tags: His6 or His-MBP fusion, removed by TEV; chain copies: 2; label: Cy5 forward strand
SOX8-NHMG, sequence (Q04886 1-175): as the sequence (Q04886 1-175, chain 2 of 2) above

[10] = biological target: SOX9-NHMG;SOX8-HMG (;, UniProt Q04887;Q04886 1-181;97-175, |); assay: EMSA; heterodimer more prominent than SOX9-NHMG homodimer; EMSA: 10 mM Tris-HCl pH 8.0, 0.1 mg/ml BSA, 50 uM ZnCl2, 100 mM KCl, 10% glycerol, 0.1% Igepal CA630, 2 mM beta-mercaptoethanol, 50 nM DNA, 4 h at 4 C; CD: 50 mM phosphate pH 8.0, 4 h at 4 C; conditions: protein: recombinant;recombinant; tags: His6 or His-MBP fusion, removed by TEV;; copies: 1;1; label: Cy5 forward strand
SOX9-NHMG;SOX8-HMG, sequence (Q04887 1-181, chain 1 of 2): as the sequence (Q04887 1-181) above
SOX9-NHMG;SOX8-HMG, sequence (Q04887 103-181 N147S, chain 2 of 2): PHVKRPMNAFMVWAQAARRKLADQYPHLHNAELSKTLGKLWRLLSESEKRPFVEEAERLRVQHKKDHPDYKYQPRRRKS

[11] = biological target: SOX9-NHMG;SOX10-HMG (;, UniProt Q04887;Q04888 1-181;102-180, |); assay: as above; conditions: protein: recombinant;recombinant; tags: His6 or His-MBP fusion, removed by TEV;N-terminal His6 (Methods, possibly only this construct); copies: 1;1; label: Cy5 forward strand
SOX9-NHMG;SOX10-HMG, sequence (Q04887 1-181, chain 1 of 2): as the sequence (Q04887 1-181) above
SOX9-NHMG;SOX10-HMG, sequence (Q04887 other isoform, or with tags, fused parts or gaps |, chain 2 of 2): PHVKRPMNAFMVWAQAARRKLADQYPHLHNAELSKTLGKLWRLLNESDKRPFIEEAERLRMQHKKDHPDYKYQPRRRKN

[12] = biological target: SOX10-DHMG;SOX10-HMG (;, UniProt Q04888;Q04888 61-180;102-180, |); assay: EMSA; mixed dimer with single DIM; EMSA: 10 mM Tris-HCl pH 8.0, 0.1 mg/ml BSA, 50 uM ZnCl2, 100 mM KCl, 10% glycerol, 0.1% Igepal CA630, 2 mM beta-mercaptoethanol, 50 nM DNA, 4 h at 4 C; CD: 50 mM phosphate pH 8.0, 4 h at 4 C; conditions: protein: recombinant;recombinant; tags: His6 or His-MBP fusion, removed by TEV;N-terminal His6 (Methods, possibly only this construct); copies: 1;1; label: Cy5 forward strand
SOX10-DHMG;SOX10-HMG, sequence (Q04888 61-180, chain 1 of 2): as the sequence (Q04888 61-180, chain 2 of 2) above

[13] = biological target: SOX8-NHMG;SOX10-HMG (;, UniProt Q04886;Q04888 1-175;102-180, |); assay: as above; conditions: protein: recombinant;recombinant; tags: His6 or His-MBP fusion, removed by TEV;N-terminal His6 (Methods, possibly only this construct); copies: 1;1; label: Cy5 forward strand
SOX8-NHMG;SOX10-HMG, sequence (Q04886 1-175, chain 1 of 2): as the sequence (Q04886 1-175, chain 2 of 2) above

[14] = biological target: SOX8-NHMG;SOX8-HMG (;, UniProt Q04886;Q04886 1-175;97-175, |); assay: as above; conditions: protein: recombinant;recombinant; tags: His6 or His-MBP fusion, removed by TEV;; copies: 1;1; label: Cy5 forward strand
SOX8-NHMG;SOX8-HMG, sequence (Q04886 1-175, chain 1 of 2): as the sequence (Q04886 1-175, chain 2 of 2) above
SOX8-NHMG;SOX8-HMG, sequence (Q04886 97-175, chain 2 of 2): as the sequence (Q04887 103-181 N147S, chain 2 of 2) above

[15] = biological target: SOX10-DHMG;SOX8-HMG (;, UniProt Q04888;Q04886 61-180;97-175, |); assay: as above; conditions: protein: recombinant;recombinant; tags: His6 or His-MBP fusion, removed by TEV;; copies: 1;1; label: Cy5 forward strand
SOX10-DHMG;SOX8-HMG, sequence (Q04888 61-180, chain 1 of 2): as the sequence (Q04888 61-180, chain 2 of 2) above
SOX10-DHMG;SOX8-HMG, sequence (Q04888 other isoform, or with tags, fused parts or gaps |, chain 2 of 2): as the sequence (Q04887 103-181 N147S, chain 2 of 2) above

[16] = biological target: SOX10-DHMG;SOX9-HMG (;, UniProt Q04888;Q04887 61-180;103-181, |); assay: as above; conditions: protein: recombinant;recombinant; tags: His6 or His-MBP fusion, removed by TEV;; copies: 1;1; label: Cy5 forward strand
SOX10-DHMG;SOX9-HMG, sequence (Q04888 61-180, chain 1 of 2): as the sequence (Q04888 61-180, chain 2 of 2) above
SOX10-DHMG;SOX9-HMG, sequence (Q04888 other isoform, or with tags, fused parts or gaps |, chain 2 of 2): as the sequence (Q04887 103-181, chain 2 of 2) above

[17] = biological target: SOX8-NHMG;SOX9-HMG (;, UniProt Q04886;Q04887 1-175;103-181, |); assay: as above; conditions: protein: recombinant;recombinant; tags: His6 or His-MBP fusion, removed by TEV;; copies: 1;1; label: Cy5 forward strand
SOX8-NHMG;SOX9-HMG, sequence (Q04886 1-175, chain 1 of 2): as the sequence (Q04886 1-175, chain 2 of 2) above
SOX8-NHMG;SOX9-HMG, sequence (Q04886 97-175 S141N, chain 2 of 2): as the sequence (Q04887 103-181, chain 2 of 2) above

Measured: binding result

B1: 1 bp spacer SOX dimer probe (dsDNA)
DNA 1: CCGCCGAACAATGTCATTGTTGCCGCC
DNA 2: GGCGGCAACAATGACATTGTTCGGCGG
binds: [1]

B2: 2 bp spacer SOX dimer probe (dsDNA)
DNA 1: CGCCGAAAACAAAGGCCTTTGTTTTGCCGC
DNA 2: GCGGCAAAACAAAGGCCTTTGTTTTCGGCG
binds: [1]

B3: 3 bp spacer SOX dimer probe (dsDNA)
DNA 1: CGCCGAAAACAAAGGACCTTTGTTTTGCCG
DNA 2: CGGCAAAACAAAGGTCCTTTGTTTTCGGCG
binds: [2]

B4: 5 bp spacer SOX dimer probe (dsDNA)
DNA 1: GCCGAAAACAAAGGATACCTTTGTTTTGCC
DNA 2: GGCAAAACAAAGGTATCCTTTGTTTTCGGC
binds: [3]

B5: 4 bp spacer SOX dimer probe (dsDNA)
DNA 1: GCCGAAAACAAAGGAACCTTTGTTTTGCCG
DNA 2: CGGCAAAACAAAGGTTCCTTTGTTTTCGGC
binds: [4] | [5] | [6] | [7] | [3] | [8] | [9] | [10] | [11] | [12] | [13] | [14] | [15] | [16] | [17]

B6: 6 bp spacer SOX dimer probe (dsDNA)
DNA 1: CCGAAAACAAAGGATTACCTTTGTTTTGCC
DNA 2: GGCAAAACAAAGGTAATCCTTTGTTTTCGG
binds: [1]

B7: 0 bp spacer SOX dimer probe (dsDNA)
DNA 1: CCGCCGTAACAATGCATTGTTGCCGCC
DNA 2: GGCGGCAACAATGCATTGTTACGGCGG
binds: [1]
